Test results from the RNAGym collection of RNA variant scans (doi:10.1073/pnas.2313332121).

B1: TPR t1 (parent)
chain: GACCAAUCUGCCCUCAGAGCUCGAGAACAUCUUCGGAUGCAGAGGAGGCAGGCUUCGGUGGCGCGAUAGCGCCAACGUCCUCAACCUCCAAUGCAUCCCACCACAUGAUGAUGCCUGAAGAGCCUUGGUUUUUUG

Variants of: B1
Test: polymerase ribozyme fitness, log enrichment relative to wild type (log ratio); higher = more active; in vitro selection for triplet polymerase activity
In short: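 Libraries of mutants in each subunit of a heterodimeric triplet polymerase ribozyme were generated by PCR and transcribed. In triplicate, each went through one in vitro selection round: annealing with biotinylated primer, partner subunit and triplets; frozen incubation at −7 °C; gel excision of extended constructs; streptavidin-bead capture; RT-PCR. Fitness, taken from Illumina sequencing of input and output libraries, is the logarithm of a genotype's enrichment over wild-type enrichment, averaged across replicates with inverse-variance weights. The logarithm is base 2, and genotypes needed ≥10 input reads and ≥1 read per output to be kept.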

Variant | polymerase ribozyme fitness (log ratio)
GACCAAUCUGCCCUCAGAGCUCGAGAACAUCUUCGGAUGCAGAGGAGGCAGGCUUCGGUGGCGCGAUAGCGCUAACGUCCUCAACCUCCAAUGCAUCCCACCACAUGAUCAUGCCUGAAGAGCCUUGGUUUUUUG [C73U G110C] | -3.31
GACCAAUCUGCCCUCAGAGCUCGAGAACAUCUUCGGAUGCAGAGGAGGCAGGCUUCGGUGGCGCGAUAGCGCUAACGUCCUCAACCUCCAAUGCAUCCCACCACAUGAUUAUGCCUGAAGAGCCUUGGUUUUUUG [C73U G110U] | -1.17
GACCAAUCUGCCCUCAGAGCUCGAGAACAUCUUCGGAUGCAGAGGAGGCAGGCUUCGGUGGCGCGAUAGCGCUAACGUGCUCAACCUCCAAUGCAUCCCACCACAUGAUGAUGCCUGAAGAGCCUUGGUUUUUUG [C73U C79G] | -2.02
GACCAAUCUGCCCUCAGAGCUCGAGAACAUCUUCGGAUGCAGAGGAGGCAGGCUUCGGUGGCGCGAUAGCGCUAACGUCCUCAACCUCCAAUGCAUCCCACCACAUGAUGAUGCGUGAAGAGCCUUGGUUUUUUG [C73U C115G] | -1.77
GACCAAUCUGCCCUCAGAGCUCGAGAACAUCUUCGGAUGCAGAGGAGGCAGGCUUCGGUGGCGCGAUAGCGCUAACGUCCUCAACCUCCAAUGCAUCCCACCACAUGAUGAUGGCUGAAGAGCCUUGGUUUUUUG [C73U C114G] | -1.76
GACCAAUCUGCCCUCAGAGCUCGAGAACAUCUUCGGAUGCAGAGGAGGCAGGCUUCGGUGGCGCGAUAGCGCUAACGUCUUCAACCUCCAAUGCAUCCCACCACAUGAUGAUGCCUGAAGAGCCUUGGUUUUUUC [C73U C80U G135C] | -0.322
GACCAAUCUGCCCUCAGAGCUCGAGAACAUCUUCGGAUGCAGAGGAGGCAGGCUUCGGUGGCGCGAUAGCGCUAACGUCCUCAACUUCCAAUGCAUCCCACCACAUGACGAUGCCUAAAGAGCCUUGGUUUUUUU [C73U C86U U109C G117A G135U] | -6.47
GACCAAUCUGCCCUCAGAGCUCGAGAACAUCUUCGGAUGCAGAGGAGGCAGGCUUCGGUGGCGCGAUAGCGCGAACGUCCUCAACCUCCAAUGCAUCCCACCACAUGAUGAUGCCUGAAGAGCCUUGGUUUUAUG [C73G U133A] | -1.27
GACCAAUCUGCCCUCAGAGCUCGAGAACAUCUUCGGAUGCAGAGGAGGCAGGCUUCGGUGGCGCGAUAGCGCUAACGUCCUCAACCUCCAAUGCAUCCCACCACAUGAUGAUGUCUGAAGAGACUUGGUUUUUUG [C73U C114U C123A] | -3.41
GACCAAUCUGCCCUCAGAGCUCGAGAACAUCUUCGGAUGCAGAGGAGGCAGGCUUCGGUGGCGCGAUAGCGCUAACGUCCUCAACCUCCAACGCAUCCCACCACAUGAUGAUGCCUGAAGAGCCUUGGUUUUUUG [C73U U92C] | -1.83
GACCAAUCUGCCCUCAGAGCUCGAGAACAUCUUCGGAUGCAGAGGAGGCAGGCUUCGGUGGCGCGAUAGCGCUAACGUCCUCAACCUCCAAUGCAUCCCACCACAUGAUGAUGCCCGAAGAGCCUUGGUUUUUUG [C73U U116C] | -0.498
GACCAAUCUGCCCUCAGAGCUCGAGAACAUCUUCGGAUGCAGAGGAGGCAGGCUUCGGUGGCGCGAUAGCGCUAACGUCCUCAACCUCCAAUGCAUCCCUCCACAUGAUGAUGCCUGAAGAGCCUUGGUUUUUUG [C73U A100U] | -0.959
GACCAAUCUGCCCUCAGAGCUCGAGAACAUCUUCGGAUGCAGAGGAGGCAGGCUUCGGUGGCGCGAUAGCGCUAACGUCCUCAACCUCCAAUGCAUCCCACCACAUGAUGAAGCCUGAAGAGCCUUGGUUUUUUG [C73U U112A] | 1.41
GACCAAUCUGCCCUCAGAGCUCGAGAACAUCUUCGGAUGCAGAGGAGGCAGGCUUCGGUGGCGCGAUAGCGCUAACGUCCUCAACCUCCAGUGCAUCCCACCAUAUGAUGAAUCCUGAAGAGCCUUGGUUUUUUG [C73U A91G C104U U112A G113U] | -0.254
GACCAAUCUGCCCUCAGAGCUCGAGAACAUCUUCGGAUGCAGAGGAGGCAGGCUUCGGUGGCGCGAUAGCGCUAAUGUCCUCAACCUCCAAUGCAUUCCACCACAUGAUGAAGCCUGAAGAGCCUUGGAUUUUUG [C73U C76U C97U U112A U129A] | -1.35
GACCAAUCUGCCCUCAGAGCUCGAGAACAUCUUCGGAUGCAGAGGAGGCAGGCUUCGGUGGCGCGAUAGCGCUAACGUCCUCAACCUCCAAUGCAUCCCACCACAUGAUUAUGCCUGAAAAGCCUUGGUUUUUUG [C73U G110U G120A] | -2.15
GACCAAUCUGCCCUCAGAGCUCGAGAACAUCUUCGGAUGCAGAGGAGGCAGGCUUCGGUGGCGCGAUAGCGCUAACGUCCUAAACCUCCAAUGCAUCCCACCACAUGAUGAUGCCUGAAGAGCGUUGGUUUUUUG [C73U C82A C124G] | 1.47
GACCAAUCUGCCCUCAGAGCUCGAGAACAUCUUCGGAUGCAGAGGAGGCAGGCUUCGGUGGCGCGAUAGCGCUAACGUCCUCAACCUCCAAUGCAUCCCACCACAUGAUGAUGCCUGAUGAGCCUCGGUUUUUUG [C73U A119U U126C] | -0.929
GACCAAUCUGCCCUCAGAGCUCGAGAACAUCUUCGGAUGCAGAGGAGGCAGGCUUCGGUGGCGCGAUAGCGCUAACGUCCUCAACCUCCAAUGCAUCCCACCACAUGAUGAUGCCUGAAGAGCCUUGGUUUUAUG [C73U U133A] | 0.4
GACCAAUCUGCCCUCAGAGCUCGAGAACAUCUUCGGAUGCAGAGGAGGCAGGCUUCGGUGGCGCGAUAGCGCUAACGUCCUCUACCUCCAAUGCAUCCCACCAAAUGAUUAUGCCUGAAGAGCCUUGGUUUUUUG [C73U A83U C104A G110U] | -4.18
GACCAAUCUGCCCUCAGAGCUCGAGAACAUCUUCGGAUGCAGAGGAGGCAGGCUUCGGUGGCGCGAUAGCGCUAACGUCCUCCACCUCCAAUGCAUCCCACCACAUGAUGAUGCCUGAAGAGCCUUGGUUUUUUG [C73U A83C] | -2.2

Variant | polymerase ribozyme fitness (log ratio)
GACCAAUCUGCCCUCAGAGCUCGAGAACAUCUUCGGAUGCAGAGGAGGCAGGCUUCGGUGGCGCGAUAGCGCUAACGUCCUCAACCUCCAAUGCUUCCCACCACAUGAUGUUGCCUGAAGAGCCUUGGUUUUUUG [C73U A95U A111U] | -2.76
GACCAAUCUGCCCUCAGAGCUCGAGAACAUCUUCGGAUGCAGAGGAGGCAGGCUUCGGUGGCGCGAUAGCGCUAACGUCCUCAACCUCCAAUGCAUCCCACCACAUGAUGAUGCCUGAAGAACCUUGGUUUUUUG [C73U G122A] | -0.427
GACCAAUCUGCCCUCAGAGCUCGAGAACAUCUUCGGAUGCAGAGGAGGCAGGCUUCGGUGGCGCGAUAGCGCUAACGUCCUCAAUCUCCAAUGCAUCCCACCACAUGAUGAUGCCGGAAGAGCCUUGGUUUUUUG [C73U C85U U116G] | -3.31
GACCAAUCUGCCCUCAGAGCUCGAGAACAUCUUCGGAUGCAGAGGAGGCAGGCUUCGGUGGCGCGAUAGCGCUAACGUCCUCAACCUCCAAUGCAUACCACCACACGAUGAUGCCUGAAGAGCCUUGGUUUUUUG [C73U C97A U106C] | -5.37
GACCAAUCUGCCCUCAGAGCUCGAGAACAUCUUCGGAUGCAGAGGAGGCAGGCUUCGGUGGCGCGAUAGCGCUAACGUCCUCAACCUCCAAUGCAUCCCACCACCUGAUGAUGCCUGAUGAGCCUUGAUUUUUUG [C73U A105C A119U G128A] | -3.98
GACCAAUCUGCCCUCAGAGCUCGAGAACAUCUUCGGAUGCAGAGGAGGCAGGCUUCGGUGGCGCGAUAGCGCUAACGUCCGGAACCUCCAAUGCAUCCCACCACAUGAUGAUGCCUGAAGAGACUUGGUUUUUUG [C73U U81G C82G C123A] | 0.626
GACCAAUCUGCCCUCAGAGCUCGAGAACAUCUUCGGAUGCAGAGGAGGCAGGCUUCGGUGGCGCGAUAGCGCUAACGUCCACAACCUCCAAUGCAUCACACCACAUGAUGAUACCUUAAGAGCCUUGGUUGUUUG [C73U U81A C98A G113A G117U U131G] | -5.03
GACCAAUCUGCCCUCAGAGCUCGAGAACAUCUUCGGAUGCAGAGGAGGCAGGCUUCGGUGGCGCGAUAGCGCUAACGUCCUCAACCUCCAAUGCAUCCCACCAUAUGAUGAUGCCUGAAGAGCCUUGGUUUUUUG [C73U C104U] | 0.0551
GACCAAUCUGCCCUCAGAGCUCGAGAACAUCUUCGGAUGCAGAGGAGGCAGGCUUCGGUGGCGCGAUAGCGCGAACGUCCUCAACCUCCAAUGCAUCCCACCACAUGAUGAUGCCUGAAGAGCCUUGGUCUUUUG [C73G U130C] | -0.482
GACCAAUCUGCCCUCAGAGCUCGAGAACAUCUUCGGAUGCAGAGGAGGCAGGCUUCGGUGGCGCGAUAGCGCUAACGUCCUCAACCUCCAUUGCAACCCACCACAUGAUGAAGCCUGAAUAGCCUUGGUUUUUUG [C73U A91U U96A U112A G120U] | -3.6
GACCAAUCUGCCCUCAGAGCUCGAGAACAUCUUCGGAUGCAGAGGAGGCAGGCUUCGGUGGCGCGAUAGCGCUAACGUCCUCAUCCUCCAAUGCAUCCCACCACAUGAUGAUGCCUGAAGAGCCUUGGUUUUUUG [C73U A84U] | -0.363
GACCAAUCUGCCCUCAGAGCUCGAGAACAUCUUCGGAUGCAGAGGAGGCAGGCUUCGGUGGCGCGAUAGCGCUAACGUCCUCAACCUCCGAUGCAUCCCACCACAUGAUGAUGCCUGAAGCGCCUUGGUUUUUUG [C73U A90G A121C] | 2.05
GACCAAUCUGCCCUCAGAGCUCGAGAACAUCUUCGGAUGCAGAGGAGGCAGGCUUCGGUGGCGCGAUAGCGCUAACGUCCUCAACCUCCAAUGCAUCCCACCACAUGAUGAUGCCUGAAGAGCGUUGGUUUUUUG [C73U C124G] | 0.939
GACCAAUCUGCCCUCAGAGCUCGAGAACAUCUUCGGAUGCAGAGGAGGCAGGCUUCGGUGGCGCGAUAGCGCUAACGUCCUCAACCUCCAAUGCAUCCCACCACAUGAUGAUGCCUGAAGUGCCUUGGUUUUAUG [C73U A121U U133A] | 2.19
GACCAAUCUGCCCUCAGAGCUCGAGAACAUCUUCGGAUGCAGAGGAGGCAGGCUUCGGUGGCGCGAUAGCGCUAACGUCCUCAGCCUCCUAUGCAUCCCACCGCAUGAAGAUGCCUGAAGAGCAUUGGUUUUUUG [C73U A84G A90U A103G U109A C124A] | -4.51
GACCAAUCUGCCCUCAGAGCUCGAGAACAUCUUCGGAUGCAGAGGAGGCAGGCUUCGGUGGCGCGAUAGCGCUAACGUCCUCAACCUUCAAGGCAUCCCACCACAUGAUGAUGCCUGAAGAGCCUUGGUUUUUUG [C73U C88U U92G] | -2.64
GACCAAUCUGCCCUCAGAGCUCGAGAACAUCUUCGGAUGCAGAGGAGGCAGGCUUCGGUGGCGCGAUAGCGCUAACGUCCUCAACCUCCAAUGCAUCCCACCCCAUGAUGAUGCCUGAAGAGCCUUGGUUUUUUG [C73U A103C] | -3.82
GACCAAUCUGCCCUCAGAGCUCGAGAACAUCUUCGGAUGCAGAGGAGGCAGGCUUCGGUGGCGCGAUAGCGCUAACGCCCUCAACCUCCAAUGCAACCCACCACAUGAUGAUGCCUGAAGAGCCUUGGUUUUUUG [C73U U78C U96A] | -1.03
GACCAAUCUGCCCUCAGAGCUCGAGAACAUCUUCGGAUGCAGAGGAGGCAGGCUUCGGUGGCGCGAUAGCGCUAACGUGCUCAGCCUCCAAUGCACCCCACCACAUGAUGAUGCCUGAAGAGCCUUGGUUUUUUG [C73U C79G A84G U96C] | -2.54
GACCAAUCUGCCCUCAGAGCUCGAGAACAUCUUCGGAUGCAGAGGAGGCAGGCUUCGGUGGCGCGAUAGCGCUAACGUCCUCAACCUCCAAUGCAUCCCACCACAUGAUGAUGCCUAAAUAGCCUUGGUUUUUUG [C73U G117A G120U] | -2.36
GACCAAUCUGCCCUCAGAGCUCGAGAACAUCUUCGGAUGCAGAGGAGGCAGGCUUCGGUGGCGCGAUAGCGCUAACGUCCUCAACCUCCAAUGCAUCCCACCACAUGAUGAUGCCUAAAGAGCCUUGGUUUUUUG [C73U G117A] | 0.149
